Assay results published in patent US20240358849A1 (SUZHOU FUSE BIOSCIENCES, published 2024).

How the values were obtained:
[1] = target: Fc receptor CD64, Avi-tagged (UniProt P12314); experiment: BLI, Avi-tagged receptor on streptavidin sensor; IgG complexed with TNFα
[2] = target: T1, IL-2hex, mutant human IL-2 (deltaA1/T3A/F42A/Y45A/L72G/C125S) (human, UniProt P60568 22-153); experiment: not stated (legend of FIG. 7C)
T1 chain: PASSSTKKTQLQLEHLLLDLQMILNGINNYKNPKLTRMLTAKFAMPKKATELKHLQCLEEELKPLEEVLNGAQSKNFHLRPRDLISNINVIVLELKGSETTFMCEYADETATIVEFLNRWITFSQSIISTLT

[3] = target: T2, human Fibroblast Activation Protein (FAP), soluble antigen (human, UniProt Q12884 26-760, biotinylated when immobilized on streptavidin sensors); experiment: BLI, FAP on streptavidin sensor, monovalent Fab-Fc fusion of D002
T2 construct: also called hFAP; biotinylated FAP

[4] = target: T1, IL-2hex, mutant human IL-2 …; experiment: not stated in the sentence (BLI value of FIG. 4B, there told for IL-2)
[5] = target: T3, human interleukin-2 (IL-2), wild type (human, UniProt P60568 21-153, biotinylated when immobilized); experiment: BLI, equilibrium binding analysis, biotinylated IL-2 on streptavidin sensor, monovalent Fab-Fc fusion of D002
T3 construct: also called biotinylated IL-2; IL2 WT
T3 sequence (P60568 21-153): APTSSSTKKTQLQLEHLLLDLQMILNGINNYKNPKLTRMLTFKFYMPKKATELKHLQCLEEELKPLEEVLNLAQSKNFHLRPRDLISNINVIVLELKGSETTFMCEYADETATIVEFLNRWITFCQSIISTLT

[6] = target: T4, human FAP expressed on cells (HEK 293T-hFAP-E5; ExpiCHO-hFAP) (human, UniProt Q12884 1-760); experiment: flow cytometry, 1 µg/mL antibody
T4 construct: hFAP expression vector Sino Biologics HG10464-UT; also called hFAP expressing cells

[7] = target: T2, human Fibroblast Activation Protein …; experiment: bio-layer interferometry; the legend paragraph 249 gives the pair as B10 and FAP; which of the two is loaded on the sensor is not told
[8] = target: T1, IL-2hex, mutant human IL-2 …; experiment: screening of phage libraries, monoclonal phage ELISA
[9] = target: T2, human Fibroblast Activation Protein …; experiment: BLI; Table 11, antibody variants (Fab/scFv)
[10] = target: T3, human interleukin-2 (IL-2), wild type; experiment: BLI; Table 11, antibody variants (Fab/scFv)
[11] = target: T1, IL-2hex, mutant human IL-2 …; experiment: Affinity (nM), Table 13B
[12] = target: T2, human Fibroblast Activation Protein …; experiment: Affinity (nM), Table 13B
[13] = target: T1, IL-2hex, mutant human IL-2 …; experiment: not stated (legend of FIG. 20B)
[14] = target: T2, human Fibroblast Activation Protein …; experiment: not stated (legend of FIG. 20B)
[15] = target: T1, IL-2hex, mutant human IL-2 …; experiment: cell-based or functional assay
[16] = target: T4, human FAP expressed on cells (HEK …); experiment: cell-based or functional assay
[17] = target: T3, human interleukin-2 (IL-2), wild type; experiment: BLI; Table 11 (N.B. = no detectable binding)
[18] = target: T2, human Fibroblast Activation Protein …; experiment: BLI; Table 11, single domain
[19] = target: T2, human Fibroblast Activation Protein …; experiment: not stated (legend of FIG. 18B)
[20] = target: T2, human Fibroblast Activation Protein …; experiment: not stated (legend of FIG. 27C)
[21] = target: T1, IL-2hex, mutant human IL-2 …; experiment: not stated (legend of FIG. 7B)
[22] = target: T2, human Fibroblast Activation Protein …; experiment: BLI per 6.1.3, human FAP;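 for Kd: biolayer interferometry with immobilized antigen on sensors, antibody association up to 240 s then dissociation up to 420 s, reference-subtracted, global 1:1 fit with unlinked Rmax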;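 for kon: biolayer interferometry with immobilized antigen on sensors, antibody association up to 240 s then dissociation up to 420 s, reference-subtracted, global 1:1 fit with unlinked Rmax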
[23] = target: T2, human Fibroblast Activation Protein …; experiment: BLI per 6.1.3, human FAP; remark: listed apart in the source;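 for Kd: biolayer interferometry with immobilized antigen on sensors, antibody association up to 240 s then dissociation up to 420 s, reference-subtracted, global 1:1 fit with unlinked Rmax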;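 for kon: biolayer interferometry with immobilized antigen on sensors, antibody association up to 240 s then dissociation up to 420 s, reference-subtracted, global 1:1 fit with unlinked Rmax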

Sequence of Fc receptor CD64, Avi-tagged (P12314 16-288 limits assumed): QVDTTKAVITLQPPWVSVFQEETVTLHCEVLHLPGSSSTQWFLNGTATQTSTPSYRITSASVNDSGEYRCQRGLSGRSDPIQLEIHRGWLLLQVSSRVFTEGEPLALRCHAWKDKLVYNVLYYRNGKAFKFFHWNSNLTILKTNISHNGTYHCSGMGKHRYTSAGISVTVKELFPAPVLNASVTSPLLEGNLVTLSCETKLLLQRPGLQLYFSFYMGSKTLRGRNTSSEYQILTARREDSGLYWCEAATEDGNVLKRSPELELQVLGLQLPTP

## Certolizumab IgG, wild-type IgG1 Fc (antibody)
[1]
  CD64 Binding (% of wild-type Certolizumab-IgG1): 100%

B1: D029 mutant Fab of FB-559 (D029HV1 with D029 VL) (bispecific antibody, V domains shown)
VH: EVQLVESGGGLVQPGGSLRLSCAASGFTFTWSFMSWVRQAPGKGLEWVSWIGPSGLYTDYADSVKGRFTISRDNSKNTLYLQMNSLRAEDTAVYYCARSQYGRYYSPDYYFDYWGQGTLVTVSS
VL: DIQMTQSPSSLSASVGDRVTITCRASQDGGNYLNWYQQKPGKAPKLLIYGASTLYSGVPSRFSGSGSGTDFTLTISSLQPEDFATYYCQQGRTPPLTFGQGTKVEIKR
notes: The legend says only 'D029 mutant'
[2]
  Kd: ~400 nM

B2: anti-IL-2/anti-FAP two-in-one antibody D002 (bispecific antibody, V domains shown)
VH: EVQLVESGGGLVQPGGSLRLSCAASGFTFSRYSMSWVRQAPGKGLEWVSDISSYSTTYYADSVKGRFTISRDNSKNTLYLQMNSLRAEDTAVYYCARSQYGRYYSPDYYFDYWGQGTLVTVSS
VL: DIQMTQSPSSLSASVGDRVTITCRASQSIGNSLNWYQQKPGKAPKLLIYAASSLQSGVPSRFSGSGSGTDFTLTISSLQPEDFATYYCQQGRRSPFTFGQGTKVEIKR
[3]
  Kd: ~50 nM
[4]
  Kd: ~3400 nM
[5]
  Kd: 3400 nM

B3: two-in-one antibody B10 (bispecific antibody, V domains shown)
VH: EVQLVESGGGLVQPGGSLRLSCAASGFTFSRYSMGWVRQAPGKGLEWVSTIHSHGSGTRYADSVKGRFTISRDNSKNTLYLQMNSLRAEDTAVYYCARSQYGRYYSPDYYFDYWGQGTLVTVSS
VL: DIQMTQSPSSLSASVGDRVTITCRASQNIARYLNWYQQKPGKAPKLLIYAASSLQSGVPSRFSGSGSGTDFTLTISSLQPEDFATYYCQQGRYSPFTFGQGTKVEIKR
[6]
  binding result: binds
[7]
  binding result: binds

B4: anti-IL-2/anti-FAP two-in-one antibody D001 (bispecific antibody, V domains shown)
VH: EVQLVESGGGLVQPGGSLRLSCAASGFTFSRYSMSWVRQAPGKGLEWVSAISPYGGGTDYADSVKGRFTISRDNSKNTLYLQMNSLRAEDTAVYYCARSQYGRYYSPDYYFDYWGQGTLVTVSS
VL: DIQMTQSPSSLSASVGDRVTITCRASQVIGSSLNWYQQKPGKAPKLLIYAASSLQSGVPSRFSGSGSGTDFTLTISSLQPEDFATYYCQQGRSYPYTFGQGTKVEIKR
notes: Fab/scFv or monovalent Fab-Fc
[8]
  binding result: binds
[9]
  Kd: 30 nM
[10]
  Kd: > 5000 nM

B5: D029-HV1LV1 (bispecific antibody, V domains shown)
VH: EVQLVESGGGLVQPGGSLRLSCAASGFTFTWSFMSWVRQAPGKGLEWVSWIGPSGLYTDYADSVKGRFTISRDNSKNTLYLQMNSLRAEDTAVYYCARSQYGRYYSPDYYFDYWGQGTLVTVSS
VL: DIQMTQSPSSLSASVGDRVTITCRASQALGFYLNWYQQKPGKAPKLLIYAASSLSSGVPSRFSGSGSGTDFTLTISSLQPEDFATYYCQQGRTPPLTFGQGTKVEIKR
notes: also called D029 Rev1/S55L; D029HVILV1 (so in the source)
[11]
  Kd: 427 nM
[12]
  Kd: 1.8 nM
[13]
  Kd: ~237 nM
[14]
  Kd: > 5000 nM
[15]
  EC50 of HEK-Blue IL2 assay (pM) with HEK 293T; variant as masking moiety of a configuration 3 immunoconjugate: 6060 pM
[16]
  EC50 of HEK-Blue IL2 assay (pM) with HEK 293T-hFAP-E5; variant as masking moiety of a configuration 3 immunoconjugate: 42 pM

B6: single domain anti-FAP antibody VHH6 (VHH)
VHH: EVQLVESGGGLVQPGGSLRLSCAASGFTFTPTYMYWVRQAPGKGLEWVSAIDPYGRTEYPDSVKGRFTISRDNAKNTLYLQMNSLRPEDTAVYYCAVRVPPGVYTYYRTGPYDYWGQGTLVTVSS
[17]
  binding result: no binding
[18]
  binding result: binds
[6]
  binding result: binds

B7: anchoring moiety of FB-675 and FB-676: scFv872-5Dbl(S-S) (scFv, V domains shown)
VH: EVQLVESGGGLVQPGGSLRLSCAASGFTFRGYIMSWVRQAPGKGLEWVSWIGPEGSRTGYADSVKGRFTISRDNSKNTLYLQMNSLRAEDTAVYYCARLLYGTWFDYWGQGTLVTVSS
VL: DIQMTQSPSSLSASVGDRVTITCRASQSISSYLNWYQQKPGKAPKLLIYAASSLQSGVPSRFSGSGSGTDFTLTISSLQPEDFATYYCQQGTLLLPTFGQGTKVEIKR
modifications: disulfide to VH at VL residue 100; disulfide to VL at VH residue 44
notes: also called scFv872-5V1
[19]
  Kd: ~5 nM
[20]
  Kd: ~50 nM

B8: two-in-one antibody D047 (bispecific antibody, V domains shown)
VH: EVQLVESGGGLVQPGGSLRLSCAASGFTFHYFSMSWVRQAPGKGLEWVSSISPTYGTTDYADSVKGRFTISRDNSKNTLYLQMNSLRAEDTAVYYCARLLYGTWFDYWGQGTLVTVSS
VL: DIQMTQSPSSLSASVGDRVTITCRASQGIKNYLNWYQQKPGKAPKLLIYAASSLQSGVPSRFSGSGSGTDFTLTISSLQPEDFATYYCQQGSYLQPTFGQGTKVEIKR
notes: Fab in FB-476
[6]
  binding result: binds
[21]
  Kd: ~20 nM

B9: anti-FAP antibody 872-5V1 (antibody, V domains shown)
VH: EVQLVESGGGLVQPGGSLRLSCAASGFTFRGYIMSWVRQAPGKGLEWVSWIGPEGSRTGYADSVKGRFTISRDNSKNTLYLQMNSLRAEDTAVYYCARLLYGTWFDYWGQGTLVTVSS
VL: DIQMTQSPSSLSASVGDRVTITCRASQSISSYLNWYQQKPGKAPKLLIYAASSLQSGVPSRFSGSGSGTDFTLTISSLQPEDFATYYCQQGTLLLPTFGQGTKVEIKR
notes: KD by BLI per 6.1.3 (monovalent Fab-Fc)
[22]
  improvement of the affinity over parent 872-5 (fold): > 80 fold
[23]
  Kd: < 0.1 nM
  kon: 625000 M⁻¹ s⁻¹
